In US20260022175A1 (Chugai, published 2026):

T1: human FcγRIIb extracellular domain (human, UniProt P31994 43-217)
T1 construct: extracellular domain; also called hFcγR IIb
T1 sequence (looked up): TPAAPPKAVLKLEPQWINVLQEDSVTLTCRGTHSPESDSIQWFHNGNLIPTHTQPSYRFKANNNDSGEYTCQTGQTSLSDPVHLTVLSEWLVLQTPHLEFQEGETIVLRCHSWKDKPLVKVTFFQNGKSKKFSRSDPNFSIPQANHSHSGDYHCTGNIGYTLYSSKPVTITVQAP

T2: human FcγRIIa R extracellular domain (human, UniProt P12318 34-217)
T2 construct: extracellular domain; also called hFcγR IIa R
T2 sequence (looked up): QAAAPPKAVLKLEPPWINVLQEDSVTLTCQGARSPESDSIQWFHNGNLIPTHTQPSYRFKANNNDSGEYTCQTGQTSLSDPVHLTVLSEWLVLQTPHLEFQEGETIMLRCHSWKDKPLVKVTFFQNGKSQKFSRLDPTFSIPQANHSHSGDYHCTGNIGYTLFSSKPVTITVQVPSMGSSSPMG

T3: human FcγRIIa H extracellular domain (human, UniProt P12318 34-217)
T3 construct: extracellular domain; also called hFcγR IIa H
T3 sequence (looked up): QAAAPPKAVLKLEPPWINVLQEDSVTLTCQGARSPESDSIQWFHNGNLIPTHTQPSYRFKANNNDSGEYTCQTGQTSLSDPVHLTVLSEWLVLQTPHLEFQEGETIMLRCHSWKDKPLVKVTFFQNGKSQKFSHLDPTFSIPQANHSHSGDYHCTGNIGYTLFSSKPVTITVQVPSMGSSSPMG

T4: hFcγRIIaH on hFcγRIIaH-expressing Jurkat cells (human, UniProt P12318 34-317)
T4 sequence (looked up): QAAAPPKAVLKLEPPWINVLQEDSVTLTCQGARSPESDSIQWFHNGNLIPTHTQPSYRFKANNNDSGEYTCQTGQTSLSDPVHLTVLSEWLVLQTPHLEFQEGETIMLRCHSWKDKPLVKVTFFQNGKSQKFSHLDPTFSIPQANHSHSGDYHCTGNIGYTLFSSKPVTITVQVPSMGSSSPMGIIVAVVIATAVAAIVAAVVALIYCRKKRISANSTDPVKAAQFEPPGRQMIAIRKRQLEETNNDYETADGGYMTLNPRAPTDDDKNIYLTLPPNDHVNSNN


Assays:
[1] = biological target: T1, human FcγRIIb extracellular domain; experiment: SPR Biacore 8K+, antibody captured, FcγR as analyte, steady state affinity model
Procedure: (§1) The interaction between the produced antibodies and human FcγRs was analyzed using Biacore 8K+ by the method below. For the running buffer, 50 mM Na-Phosphate, 150 mM NaCl, and 0.05% Tween20 (pH 7.4) was used, and measurement was performed at 25° C. The sensor chip used was a Series S SA chip (GE Healthcare) onto which CaptureSelect Human Fab-kappa Kinetics Biotin Conjugate (Thermo Fisher Scientific) was immobilized. An antibody of interest was captured onto this chip, and each FcγR diluted with the running buffer was allowed to interact with it. The chip was regenerated using 10 mM Glycine-HCl (pH 1.5), and repeatedly used to capture antibodies and perform measurement. The dissociation constants KD (mol/L) of each antibody for FcγRs were calculated using Biacore Insight Evaluation Software, with a steady state affinity model for the dissociation constant for FcγRIIb and a 1:1 Langmuir binding model for the dissociation constants for the other FcγRs (Table 48).

[2] = biological target: T2, human FcγRIIa R extracellular domain; experiment: SPR Biacore 8K+, antibody captured, FcγR as analyte, 1:1 Langmuir model;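 also: antibodies captured on a streptavidin chip through a biotinylated anti-human Fab kappa reagent, with FcγR extracellular domains injected in pH 7.4 phosphate buffer at 25 °C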
Procedure: as §1

[3] = biological target: T3, human FcγRIIa H extracellular domain; experiment: as above
Procedure: as §1

[4] = biological target: T5, human FcγRIIIa V extracellular domain (human, UniProt P08637 17-208); experiment: as above
T5 construct: extracellular domain; also called hFcγR IIIa V
T5 sequence (P08637 17-208 F176V limits assumed): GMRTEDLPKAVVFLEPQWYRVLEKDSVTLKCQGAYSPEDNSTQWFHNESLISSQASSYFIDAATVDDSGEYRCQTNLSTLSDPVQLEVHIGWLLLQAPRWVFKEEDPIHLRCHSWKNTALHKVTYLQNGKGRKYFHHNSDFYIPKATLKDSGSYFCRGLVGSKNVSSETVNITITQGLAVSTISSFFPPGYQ
Procedure: as §1

[5] = biological target: T6, human FcγRIIIa F extracellular domain (human, UniProt P08637 17-208); experiment: as above
T6 construct: extracellular domain; also called hFcγR IIIa F
T6 sequence (P08637 17-208): as the sequence (P08637 17-208 F176V limits assumed) above, with V160F counted along it
Procedure: as §1

[6] = biological target: T7, human FcγRIa extracellular domain (human, UniProt P12314 16-292); experiment: as above
T7 construct: extracellular domain; also called hFcγR Ia; hFcγRIa
T7 sequence (P12314 16-292): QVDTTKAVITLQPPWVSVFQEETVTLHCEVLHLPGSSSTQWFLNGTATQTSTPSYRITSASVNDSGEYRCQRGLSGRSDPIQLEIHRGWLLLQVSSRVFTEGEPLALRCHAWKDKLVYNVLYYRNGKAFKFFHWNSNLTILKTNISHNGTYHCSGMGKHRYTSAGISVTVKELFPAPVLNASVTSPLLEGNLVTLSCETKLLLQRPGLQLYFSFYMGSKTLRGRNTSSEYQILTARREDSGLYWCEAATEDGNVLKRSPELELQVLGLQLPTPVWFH
Procedure: as §1

[7] = biological target: hFcγRIIIaV on hFcγRIIIaV-expressing Jurkat cells (human, UniProt P08637 17-254); experiment: cell-based or functional assay
Sequence of hFcγRIIIaV on hFcγRIIIaV-expressing Jurkat cells (P08637 17-254, form in doubt): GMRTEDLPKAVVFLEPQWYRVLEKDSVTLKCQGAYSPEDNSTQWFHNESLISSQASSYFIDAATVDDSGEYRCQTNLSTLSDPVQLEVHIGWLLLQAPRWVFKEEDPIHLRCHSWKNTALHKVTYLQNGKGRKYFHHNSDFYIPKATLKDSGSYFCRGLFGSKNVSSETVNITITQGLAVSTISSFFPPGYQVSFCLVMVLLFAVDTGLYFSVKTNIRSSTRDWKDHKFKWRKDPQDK

[8] = biological target: T2, human FcγRIIa R extracellular domain; experiment: SPR Biacore 8K+; KD for FcγRIIb divided by KD for this FcγR;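 also: antibodies captured on an anti-human Fab kappa SA chip with soluble human FcγR ectodomains flowed over, FcγRIIb KD from steady-state fit, other FcγR KD from Langmuir model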
[9] = biological target: T3, human FcγRIIa H extracellular domain; experiment: as above
[10] = biological target: T5, human FcγRIIIa V extracellular domain; experiment: as above
[11] = biological target: T6, human FcγRIIIa F extracellular domain; experiment: as above
[12] = biological target: T4, hFcγRIIaH on hFcγRIIaH-expressing …; experiment: cell-based or functional assay
[13] = biological target: T1, human FcγRIIb extracellular domain; experiment: SPR Biacore 8K+; KD of G1d divided by KD of this antibody;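 also: antibodies captured on an anti-Fab-kappa streptavidin chip, soluble FcγR ectodomains flowed over, KD by steady-state fit for FcγRIIb and Langmuir kinetic model for the other receptors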
[14] = biological target: T2, human FcγRIIa R extracellular domain; experiment: as above
[15] = biological target: T3, human FcγRIIa H extracellular domain; experiment: as above
[16] = biological target: T5, human FcγRIIIa V extracellular domain; experiment: as above
[17] = biological target: T6, human FcγRIIIa F extracellular domain; experiment: as above
[18] = biological target: T7, human FcγRIa extracellular domain; experiment: as above

| Kd [1] [nM] | Kd [2] [nM] | Kd [3] [nM] | Kd [4] [nM] | Kd [5] [nM] | Kd [6] [nM] | EC50 value (hFcγRIIIaV ADCC Reporter Bioassay, Hepa1-6/hEREG target cells) [7] [µg/mL] | A/I ratio (KD for FcγRIIb divided by KD for each FcγR) [8] | A/I ratio (KD for FcγRIIb divided by KD for each FcγR) [9] | A/I ratio (KD for FcγRIIb divided by KD for each FcγR) [10] | A/I ratio (KD for FcγRIIb divided by KD for each FcγR) [11] | EC50 value (hFcγRIIaH ADCP Reporter Bioassay, Hepa1-6/hEREG target cells) [12] [µg/mL] | Relative value to KD between G1d and hFcgRs [13] | Relative value to KD between G1d and hFcgRs [14] | Relative value to KD between G1d and hFcgRs [15] | Relative value to KD between G1d and hFcgRs [16] | Relative value to KD between G1d and hFcgRs [17] | Relative value to KD between G1d and hFcgRs [18] | Binder |
| --- | --- | --- | --- | --- | --- | --- | --- | --- | --- | --- | --- | --- | --- | --- | --- | --- | --- | --- |
| 11700 | 518 | 179 | 0.775 | 1.17 | 0.0305 | 0.000789 | 22.5 | 65.2 | 15000 | 9940 | 0.0432 | 0.9 | 3.2 | 6.3 | 462 | 2520 | 2.9 | H240-Kn456/L73-k0//H240-Hl446/L73-k0 (antibody, human IgG1, kappa, also called EGL-ART4; ART4) heavy 1: QDQLVQSGAEVKKPGASVKVSCKASGFNIKDTYIQWVRQAPGQGLEWMGRIDPLRKQTKYREKFEGRVTITADTSTNTAYMELSSLRSEDTAVYYCVRSGREFDYWGQGTLVTVSSASTKGPSVFPLAPSSKSTSGGTAALGCLVKDYFPEPVTVSWNSGALTSGVHTFPAVLQSSGLYSLSSVVTVPSSSLGTQTYICNVNHKPSNTKVDKKVEPKSCDKTHTCPPCPAPEFQWGPMVFLFPPKPKDVLMISRTPEVTCVVVDVSDEEPEVKFNWYVDGVEVHNAKTKPREEQYNATYRVVSVLPVLHQDWLNGKEYKCKVSNKALPMPEEKTISKAKGQPREPQVCTLPPSRDELTKNQVSLWCLVKGFYPSDIAVEWESNGQPENNYKTTPPVLDSDGSFFLYSKLTVDKSRWQQGNVFSCSVMHEALHNHYTQKSLSLSP heavy 2: QDQLVQSGAEVKKPGASVKVSCKASGFNIKDTYIQWVRQAPGQGLEWMGRIDPLRKQTKYREKFEGRVTITADTSTNTAYMELSSLRSEDTAVYYCVRSGREFDYWGQGTLVTVSSASTKGPSVFPLAPSSKSTSGGTAALGCLVKDYFPEPVTVSWNSGALTSGVHTFPAVLQSSGLYSLSSVVTVPSSSLGTQTYICNVNHKPSNTKVDKKVEPKSCDKTHTCPPCPAPELLAGPSVFLFPPKPKDVLMISRTPEVTCVVVDVSHEEPEVKFNWYVDGVEVHNAKTKPREEQYNATYRVVSVLPVLHQDWLNGKEYKCKVSNDALPMPEEETISKAKGQPREPQVYTLPPSRCELTKNQVSLSCAVKGFYPSDIAVEWESNGQPENNYKTTPPVLDSDGSFFLVSKLTVDKSRWQQGNVFSCSVMHEALHNHYTQKSLSLSP light: DIQMTQSPSSLSASVGDRVTITCRASQDIHKYIAWYQQKPGQAPRLLIQYTSTLQPGVPSRFSGSGSGTDYTFTISSLQPEDIATYYCLQYEQLRTFGGGTKVEIKRTVAAPSVFIFPPSDEQLKSGTASVVCLLNNFYPREAKVQWKVDNALQSGNSQESVTEQDSKDSTYSLSSTLTLSKADYEKHKVYACEVTHQGLSSPVTKSFNRGEC |
| 2920 | 68.9 | 9.52 | 1.11 | 3 | 0.0737 | 0.0015 | 42.4 | 307 | 2630 | 976 | 0.0192 | 3.4 | 24.1 | 118 | 322 | 987 | 1.2 | H240-Kn462/L73-k0//H240-Hl445/L73-k0 (antibody, human IgG1, kappa, also called EGL-ART6; ART6) heavy 1: QDQLVQSGAEVKKPGASVKVSCKASGFNIKDTYIQWVRQAPGQGLEWMGRIDPLRKQTKYREKFEGRVTITADTSTNTAYMELSSLRSEDTAVYYCVRSGREFDYWGQGTLVTVSSASTKGPSVFPLAPSSKSTSGGTAALGCLVKDYFPEPVTVSWNSGALTSGVHTFPAVLQSSGLYSLSSVVTVPSSSLGTQTYICNVNHKPSNTKVDKKVEPKSCDKTHTCPPCPAPEFQWGPMVFLFPPKPKDVLMISRTPEVTCVVVDVSDEEPEVKFNWYVDGVEVHNAKTKPREEQYNATYRVVSVLPVLHQDWLNGKEYKCKVSNDALPAPIEKTISKAKGQPREPQVCTLPPSRDELTKNQVSLWCLVKGFYPSDIAVEWESNGQPENNYKTTPPVLDSDGSFFLYSKLTVDKSRWQQGNVFSCSVMHEALHNHYTQKSLSLSP heavy 2: QDQLVQSGAEVKKPGASVKVSCKASGFNIKDTYIQWVRQAPGQGLEWMGRIDPLRKQTKYREKFEGRVTITADTSTNTAYMELSSLRSEDTAVYYCVRSGREFDYWGQGTLVTVSSASTKGPSVFPLAPSSKSTSGGTAALGCLVKDYFPEPVTVSWNSGALTSGVHTFPAVLQSSGLYSLSSVVTVPSSSLGTQTYICNVNHKPSNTKVDKKVEPKSCDKTHTCPPCPAPELLAGPSVFLFPPKPKDVLMISRTPEVTCVVVDVSHEEPEVKFNWYVDGVEVHNAKTKPREEQYNATYRVVSVLPVLHQDWLNGKEYKCKVSNDALPKPDEETISKAKGQPREPQVYTLPPSRCELTKNQVSLSCAVKGFYPSDIAVEWESNGQPENNYKTTPPVLDSDGSFFLVSKLTVDKSRWQQGNVFSCSVMHEALHNHYTQKSLSLSP light: DIQMTQSPSSLSASVGDRVTITCRASQDIHKYIAWYQQKPGQAPRLLIQYTSTLQPGVPSRFSGSGSGTDYTFTISSLQPEDIATYYCLQYEQLRTFGGGTKVEIKRTVAAPSVFIFPPSDEQLKSGTASVVCLLNNFYPREAKVQWKVDNALQSGNSQESVTEQDSKDSTYSLSSTLTLSKADYEKHKVYACEVTHQGLSSPVTKSFNRGEC |
